The results in this text go back to the supplement of paper PMC10266784.

B1: library; numbered along this chain (parent)
chain: MAAAAAAAAEQQSSNGPVKKSMREKAVERRSVNKEHNSNFKAGYIPIDEDRLHKTGLRGRKGNLAICVIILLFILAVINLIITLVIWAVIRIGPNGCDSMEFHESGLLRFKQVSDMGVIHPLYKSTVGGRRNENLVITGNNQPIVFQQGTTKLSVENNKTSITSDIGMQFFDPRTQNILFSTDYETHEFHLPSGVKSLNVQKASTERITSNATSDLNIKVDGRAIVRGNEGVFIMGKTIEFHMGGNMELKAENSIILNGSVMVSTTRLPSSSSGDQLGSGDWVRYKLCMCADGTLFKVQVTSQNMGCQISDNPCGNTH

Variants of B1 are the subject of the data set. The experiment in a line: SGCB cell-surface expression functional score (HA stain, bin4 vs bin1, normalised to synonymous) (log10 ratio); higher = more cell-surface SGCB (functional). The essentials: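 Using lentivirus at MOI <0.1, HA-tagged, YFP-fused human beta-sarcoglycan codon-saturation libraries were put into HEK293 cells with stable alpha-, gamma- and delta-sarcoglycan expression, in duplicate transductions. YFP-positive cells were collected by sorting 72 hours later, grown 5–7 days, stained on ice with Alexa Fluor 647 anti-HA, fixed, sorted into four 5% intensity bins and amplicon-sequenced. The functional score takes the median, across codons and transductions, of the log ratio of highest-bin to lowest-bin variant frequency. Within each section, synonymous variants were scaled to mean 0, SD 0.5.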
On to MAAAAAAAAEQQSSNGPVKKSMREKAVERRSVNKEHNSNFKAGYIPIDEDRLHKTGLRGRKGNLAICVIILLFILAVINLIITLVIWAVIRIGPNGCDWMEFHESGLLRFKQVSDMGVIHPLYKSTVGGRRNENLVITGNNQPIVFQQGTTKLSVENNKTSITSDIGMQFFDPRTQNILFSTDYETHEFHLPSGVKSLNVQKASTERITSNATSDLNIKVDGRAIVRGNEGVFIMGKTIEFHMGGNMELKAENSIILNGSVMVSTTRLPSSSSGDQLGSGDWVRYKLCMCADGTLFKVQVTSQNMGCQISDNPCGNTH [S99W], for which the “SGCB cell-surface expression functional score (log10)” value was -0.35.
As for MAAAAAAAAEQQSSNGPVKKSMREKAVERRSVNKEHNSNFKAGYIPIDEDRLHKTGLRGRKGNLAICVIILLFILAVINLIITLVIWAVIRIGPNGCDTMEFHESGLLRFKQVSDMGVIHPLYKSTVGGRRNENLVITGNNQPIVFQQGTTKLSVENNKTSITSDIGMQFFDPRTQNILFSTDYETHEFHLPSGVKSLNVQKASTERITSNATSDLNIKVDGRAIVRGNEGVFIMGKTIEFHMGGNMELKAENSIILNGSVMVSTTRLPSSSSGDQLGSGDWVRYKLCMCADGTLFKVQVTSQNMGCQISDNPCGNTH [S99T], the figure is -0.4.
MAAAAAAAAEQQSSNGPVKKSMREKAVERRSVNKEHNSNFKAGYIPIDEDRLHKTGLRGRKGNLAICVIILLFILAVINLIITLVIWAVIRIGPNGCDQMEFHESGLLRFKQVSDMGVIHPLYKSTVGGRRNENLVITGNNQPIVFQQGTTKLSVENNKTSITSDIGMQFFDPRTQNILFSTDYETHEFHLPSGVKSLNVQKASTERITSNATSDLNIKVDGRAIVRGNEGVFIMGKTIEFHMGGNMELKAENSIILNGSVMVSTTRLPSSSSGDQLGSGDWVRYKLCMCADGTLFKVQVTSQNMGCQISDNPCGNTH [S99Q]: the “SGCB cell-surface expression functional score (log10)” value was -2.34.
Regarding MAAAAAAAAEQQSSNGPVKKSMREKAVERRSVNKEHNSNFKAGYIPIDEDRLHKTGLRGRKGNLAICVIILLFILAVINLIITLVIWAVIRIGPNGCDPMEFHESGLLRFKQVSDMGVIHPLYKSTVGGRRNENLVITGNNQPIVFQQGTTKLSVENNKTSITSDIGMQFFDPRTQNILFSTDYETHEFHLPSGVKSLNVQKASTERITSNATSDLNIKVDGRAIVRGNEGVFIMGKTIEFHMGGNMELKAENSIILNGSVMVSTTRLPSSSSGDQLGSGDWVRYKLCMCADGTLFKVQVTSQNMGCQISDNPCGNTH [S99P], the “SGCB cell-surface expression functional score (log10)” value is -0.38.
Under MAAAAAAAAEQQSSNGPVKKSMREKAVERRSVNKEHNSNFKAGYIPIDEDRLHKTGLRGRKGNLAICVIILLFILAVINLIITLVIWAVIRIGPNGCDRMEFHESGLLRFKQVSDMGVIHPLYKSTVGGRRNENLVITGNNQPIVFQQGTTKLSVENNKTSITSDIGMQFFDPRTQNILFSTDYETHEFHLPSGVKSLNVQKASTERITSNATSDLNIKVDGRAIVRGNEGVFIMGKTIEFHMGGNMELKAENSIILNGSVMVSTTRLPSSSSGDQLGSGDWVRYKLCMCADGTLFKVQVTSQNMGCQISDNPCGNTH [S99R] stands -1.61; under MAAAAAAAAEQQSSNGPVKKSMREKAVERRSVNKEHNSNFKAGYIPIDEDRLHKTGLRGRKGNLAICVIILLFILAVINLIITLVIWAVIRIGPNGCDVMEFHESGLLRFKQVSDMGVIHPLYKSTVGGRRNENLVITGNNQPIVFQQGTTKLSVENNKTSITSDIGMQFFDPRTQNILFSTDYETHEFHLPSGVKSLNVQKASTERITSNATSDLNIKVDGRAIVRGNEGVFIMGKTIEFHMGGNMELKAENSIILNGSVMVSTTRLPSSSSGDQLGSGDWVRYKLCMCADGTLFKVQVTSQNMGCQISDNPCGNTH [S99V], 0.15; under MAAAAAAAAEQQSSNGPVKKSMREKAVERRSVNKEHNSNFKAGYIPIDEDRLHKTGLRGRKGNLAICVIILLFILAVINLIITLVIWAVIRIGPNGCDYMEFHESGLLRFKQVSDMGVIHPLYKSTVGGRRNENLVITGNNQPIVFQQGTTKLSVENNKTSITSDIGMQFFDPRTQNILFSTDYETHEFHLPSGVKSLNVQKASTERITSNATSDLNIKVDGRAIVRGNEGVFIMGKTIEFHMGGNMELKAENSIILNGSVMVSTTRLPSSSSGDQLGSGDWVRYKLCMCADGTLFKVQVTSQNMGCQISDNPCGNTH [S99Y], 0.12.
For the variant MAAAAAAAAEQQSSNGPVKKSMREKAVERRSVNKEHNSNFKAGYIPIDEDRLHKTGLRGRKGNLAICVIILLFILAVINLIITLVIWAVIRIGPNGCDSDEFHESGLLRFKQVSDMGVIHPLYKSTVGGRRNENLVITGNNQPIVFQQGTTKLSVENNKTSITSDIGMQFFDPRTQNILFSTDYETHEFHLPSGVKSLNVQKASTERITSNATSDLNIKVDGRAIVRGNEGVFIMGKTIEFHMGGNMELKAENSIILNGSVMVSTTRLPSSSSGDQLGSGDWVRYKLCMCADGTLFKVQVTSQNMGCQISDNPCGNTH [M100D], the “SGCB cell-surface expression functional score (log10)” value was -1.82.
On to MAAAAAAAAEQQSSNGPVKKSMREKAVERRSVNKEHNSNFKAGYIPIDEDRLHKTGLRGRKGNLAICVIILLFILAVINLIITLVIWAVIRIGPNGCDSCEFHESGLLRFKQVSDMGVIHPLYKSTVGGRRNENLVITGNNQPIVFQQGTTKLSVENNKTSITSDIGMQFFDPRTQNILFSTDYETHEFHLPSGVKSLNVQKASTERITSNATSDLNIKVDGRAIVRGNEGVFIMGKTIEFHMGGNMELKAENSIILNGSVMVSTTRLPSSSSGDQLGSGDWVRYKLCMCADGTLFKVQVTSQNMGCQISDNPCGNTH [M100C], for which the “SGCB cell-surface expression functional score (log10)” value is -1.81.
Under MAAAAAAAAEQQSSNGPVKKSMREKAVERRSVNKEHNSNFKAGYIPIDEDRLHKTGLRGRKGNLAICVIILLFILAVINLIITLVIWAVIRIGPNGCDSAEFHESGLLRFKQVSDMGVIHPLYKSTVGGRRNENLVITGNNQPIVFQQGTTKLSVENNKTSITSDIGMQFFDPRTQNILFSTDYETHEFHLPSGVKSLNVQKASTERITSNATSDLNIKVDGRAIVRGNEGVFIMGKTIEFHMGGNMELKAENSIILNGSVMVSTTRLPSSSSGDQLGSGDWVRYKLCMCADGTLFKVQVTSQNMGCQISDNPCGNTH [M100A] stands -1.33.
